# Measured values taken from patent US20130266566A1 (AbbVie / Abbott, published 2013).
# Numbering of substitutions follows the chain as printed.
# T1: rat PAI-1 (rat, UniProt P20961 24-402)
# T1 sequence: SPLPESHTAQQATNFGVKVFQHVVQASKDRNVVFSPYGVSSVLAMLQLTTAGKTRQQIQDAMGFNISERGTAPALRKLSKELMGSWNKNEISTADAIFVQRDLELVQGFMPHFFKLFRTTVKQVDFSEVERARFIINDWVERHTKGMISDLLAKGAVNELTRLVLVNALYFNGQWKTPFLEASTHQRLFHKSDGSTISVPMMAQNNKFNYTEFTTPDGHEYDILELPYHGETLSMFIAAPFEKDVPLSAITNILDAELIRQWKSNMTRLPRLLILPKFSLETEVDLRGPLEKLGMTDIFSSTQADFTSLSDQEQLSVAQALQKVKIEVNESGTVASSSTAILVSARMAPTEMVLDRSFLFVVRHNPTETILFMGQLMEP
# T2: mouse PAI-1 (mouse, UniProt P22777 24-401)
# T2 sequence: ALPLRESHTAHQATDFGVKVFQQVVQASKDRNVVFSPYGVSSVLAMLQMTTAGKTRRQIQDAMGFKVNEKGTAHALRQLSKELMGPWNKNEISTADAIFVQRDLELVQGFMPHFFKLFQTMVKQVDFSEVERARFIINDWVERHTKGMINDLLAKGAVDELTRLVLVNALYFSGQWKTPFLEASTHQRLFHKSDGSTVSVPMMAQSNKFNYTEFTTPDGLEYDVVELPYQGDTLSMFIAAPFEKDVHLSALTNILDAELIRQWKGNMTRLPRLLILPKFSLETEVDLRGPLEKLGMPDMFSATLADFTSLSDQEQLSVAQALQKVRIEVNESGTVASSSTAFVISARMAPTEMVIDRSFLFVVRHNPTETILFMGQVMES
# B1: Antibody 04 scFv (scFv)
# chain: QVRLQQSGAEVKKPGSSVKVSCKASGGTFSSYAISWVRQAPGQGLEWMGGIIPTFGTANYAQKFRGRVTITANESTSTAYMELSGLRSEDTAVYYCAREKRQWLEGRFDYWGRGTLVTVSSDIQMTQSPSFLSASIGDRITITCRASEGIYHSLAWYQQKPGKAPKLLIHRATSLASGTPSRFGGSGSGTDFALTISSLQPDDFATYYCQQYSNYPLTFGGGTKLEIK
# B2: Antibody 02 scFv (scFv)
# chain: QVQLVQSGAEVKKPGSSVKVSCKASGGTFSSYAISWVRQAPGQGLEWMGGIIPTFGTANYAQKFQGRVTITADESTSTAYMELSSLRSEDTAVYYCAREKRQWLEGHFDYWGRGTLVTVSSDIQMTQSPSTLSASVGDRVTITCRASEGIYHSLAWYQQKPGKAPKLLIYKASSLASGVPSRFSGSGSGTEFTLTISSLQPDDFATYYCQQYSDYPLTFGGGTKVEIK
# B3: Antibody 11 scFv (scFv)
# chain: QVQLQQSGAEVKKPGSSVKVSCKASGGTFSSYAISWMRQAPGQGLEWMGGIIPIFGTANYAQKFQGRVTITADESTSTAYMELSGLRSEDTAVYYCAREKRQWLEGHFDYWGRGTPVTVSSDIQMIQSPSFLSASTGDRVTITCQASEGIYHELAWYQQKPGKAPKLLIYRASSLASGAPSRFSGSGSGTDFTLTISSLQPDDFATYYCQQYSNYPLTFGGGTKLEIK
# B4: Antibody 13 scFv (scFv)
# chain: B3 chain with M37V, I54T, G85D, I126T, T136I, Q145R, E153S
# B5: Antibody 23 scFv (scFv)
# chain: B3 chain with M37V, I54T, G66S, I126T, T136I, Q145R, E153S
# B6: Antibody 17 scFv (scFv)
# chain: B3 chain with M37V, I54T, I126T, T136I, Q145R
# B7: Antibody 24 scFv (scFv)
# chain: B3 chain with M37V, I54T, G56V, T69S, I126T, T136I, Q145R, E153A
# B8: Antibody 21 scFv (scFv)
# chain: B3 chain with Q1P, M37V, I54T, I126A, T136I, Q145R, E153N
# B9: Antibody 26 scFv (scFv)
# chain: B3 chain with S16T, M37V, G85S, I126T, T136I, Q145R, E153T
# B10: Antibody 19 scFv (scFv)
# chain: B3 chain with M37V, G56D, K100R, Q124R, I126T, T136I, Q145R, D191E
# B11: Antibody 25 scFv (scFv)
# chain: B3 chain with M37V, I54T, K100R, R113Q, I126T, T136I, Q145R, G149S, R171K, D191A
# B12: Antibody 05 scFv (scFv)
# chain: B3 chain with M37V, I54T, G56S, Q65R, I126T, T136I, Q145R, E153Q
# B13: Antibody 03 scFv (scFv)
# chain: B3 chain with M37V, I54T, I126T, T136I, Q145R, H152R, E153S, R171K, S198G
# B14: Antibody 22 scFv (scFv)
# chain: B3 chain with S31G, M37V, I54T, A61S, I126T, P129L, T136I, Q145R, E153A
# B15: Antibody 12 scFv (scFv)
# chain: B3 chain with M37V, I54T, G56P, I126T, T136I, Q145R, E153N
# B16: Antibody 01 IgG1, not germlined (antibody, V domains shown)
# VH: QVQLVQSGAEVKKPGSSVKVSCKASGGTFSSYAISWVRQAPGQGLEWMGGIIPIFGTANYAQKFQGRVTITADESTSTAYMELSSLRSEDTAVYYCAREKRQWLEGHFDYWGRGTLVTVSS
# VL: DIQMTQSPSTLSASVGDRVTITCRASEGIYRSLAWYQQKPGKAPKLLIYKASSLASGVPSRFSGSGSGTEFTLTISSLQPDDFATYYCQQYSNYPLTFGGGTKVEIK
# B17: Antibody 18 scFv (scFv)
# chain: B3 chain with M37V, I54T, F64L, I126T, T136I, Q145R, E153A
# B18: Antibody 02 IgG1, not germlined (antibody, V domains shown)
# VH: B16 VH with I54T
# VL: B16 VL with R31H, N93D
# Molecular target: active human PAI-1, recombinant, wild-type, non-glycosylated (E. coli) (human, UniProt P05121 24-402)
# Assay: cell-based or functional assay
row,Chromogenic (IC50 in nM) human [nM],Binder
1,6.6,B1
2,0.6,B2
3,102,B3
4,2.9,B4
5,1.6,B5
6,71.5,B6
7,3.2,B7
8,4.1,B8
9,4,B9
10,26,B10
11,13.1,B11
12,5,B12
13,1.8,B13
14,5,B14
15,2.3,B15

# Molecular target: cynomolgus PAI-1 (cynomolgus, UniProt P05121 24-402 (human entry), limits assumed)
# Assay: cell-based or functional assay
Chromogenic IC50 ratio cyno/human [fold],Chromogenic (IC50 in nM) cyno [nM],Binder
0.4,–,B16
0.3,2.1,B1
1.8,1.1,B2
0.4,43.8,B3
0.4,1.2,B4
0.4,0.5,B17
0.3,0.5,B5
0.6,41.5,B6
0.3,1.1,B7
0.4,1.6,B8
0.3,1.2,B9
0.4,10.8,B10
0.4,4.6,B11
0.1,0.5,B12
0.1,0.1,B13
0.3,1.5,B14
0.3,0.6,B15

# Molecular target: T1, rat PAI-1
# Assay: cell-based or functional assay
Chromogenic IC50 ratio rat/human [fold],Chromogenic (IC50 in nM) rat [nM],Binder
317,–,B18
66.2,–,B16
51.4,340,B1
891,530,B2
0.6,59.5,B3
48.6,140,B4
229,376,B5
0.3,24.9,B6
39.3,127,B7
12,49.2,B8
61.4,245,B9
0.3,7.9,B10
24.6,322,B11
172,860,B12
165,297,B13
81.2,406,B14
34.4,78.2,B15

# Molecular target: T2, mouse PAI-1
# Assay: cell-based or functional assay
Chromogenic IC50 ratio mouse/human [fold],Chromogenic (IC50 in nM) mouse [nM],Binder
104,–,B18
20,–,B16
39.9,264,B1
929,553,B2
0.3,33.6,B3
85.8,247,B4
255,319,B17
229,376,B5
0.4,26.2,B6
43.3,140,B7
7.9,32.2,B8
52.9,211,B9
0.2,6.4,B10
13.1,172,B11
144,718,B12
30.5,54.9,B13
82.6,413,B14
12.2,27.8,B15
